Measured values reported in patent US20240010673A1 (ARIZONA BOARD OF REGENTS ON BEHALF OF THE UNIVERSITY OF …, published 2024).

Molecular target: the molecule itself
Assay: cell-based or functional assay

B1: P-C24-P (other)
chain: MGSGSGSAPQMLRELQETNAALQDVRELLRQQVKEITFLKNTVMESDASGASYRDPMGAGAGAGPEGAGAGAGPEGAGAGAGPEGAGAGAGPEGAGAGAGPEGAGAGAGPEGAGAGAGPEGAGAGAGPEGAGAGAGPEGAGAGAGPEGARMPTSYRDPMGAGAGAGPEGAGAGAGPEGAGAGAGPEGAGAGAGPEGAGAGAGPEGAGAGAGPEGAGAGAGPEGAGAGAGPEGAGAGAGPEGAGAGAGPEGARMPTSYRDPMGAGAGAGPEGAGAGAGPEGAGAGAGPEGAGAGAGPEGARMPEFAPQMLRELQETNAALQDVRELLRQQVKEITFLKNTVMESDASGKLAAALEHHHHHH
With B1 the “half-life of P coiled-coil cross-linked hydrogel in bioerosion test at 25 C” value was roughly 2.6 h.
